Reference: paper PMC6208366

Target: IANBD-labeled Hsp90 M362C (human)
Assay: stopped-flow fluorescence; IANBD-labeled Hsp90 M362C (1 µM) mixed with equal volumes of FKBP51, FK1-FK2, FK2-TPR or buffer, pseudo-first-order, 37 °C, 25 mM sodium phosphate/300 mM NaCl pH 7.2; rates as fluorescence increase at 20 s

ΔF (rate of Hsp90 binding, fluorescence increase): 0.0021 s⁻¹
B1: full-length human FKBP51 (natural protein)
chain: MTTDEGAKNNEESPTATVAEQGEDITSKKDRGVLKIVKRVGNGEETPMIGDKVYVHYKGKLSNGKKFDSSHDRNEPFVFSLGKGQVIKAWDIGVATMKKGEICHLLCKPEYAYGSAGSLPKIPSNATLFFEIELLDFKGEDLFEDGGIIRRTKRKGEGYSNPNEGATVEIHLEGRCGGRMFDCRDVAFTVGEGEDHDIPIGIDKALEKMQREEQCILYLGPRYGFGEAGKPKFGIEPNAELIYEVTLKSFEKAKESWEMDTKEKLEQAAIVKEKGTVYFKGGKYMQAVIQYGKIVSWLEMEYGLSEKESKASESFLLAAFLNLAMCYLKLREYTKAVECCDKALGLDSANEKGLYRRGEAQLLMNEFESAKGDFEKVLEVNPQNKAARLQISMCQKKAKEHNERDRRIYANMFKKFAEQDAKEEANKAMGKKTSEGVTNEKGTDSQAMEEEKPEGHV
